The values below come from patent EP4634231A1 (dated 2025).

The target in assay [1] is T1, MUC-16 (CA125) expressed on SW1990 and OVCAR3 cancer cells (human, UniProt Q8WXI7 1-14507).
T1 construct: whole, on cells
Put plainly: flow cytometry on MUC16 expressing cancer cells.

The target in assay [2] is T1, MUC-16 (CA125) expressed on SW1990 and …. Put plainly: flow cytometry saturation binding (MFI against concentration) on MUC-16 expressing SW1990 and OVCAR3 cells. On the technique in general: In flow cytometry, cells or beads pass a laser one at a time.

B1: 89Zr-DFO-M16Ab, M16Ab conjugated with p-SCN-Bn-DFO and radiolabeled with 89Zr (antibody, V domains shown)
VH: QVQLVESGGGVVQPGGSLRLSCAASGFTFSTYGMHWVRQAPGKGLEWVAVISYDGSNKYYADSVKGRFTISRDNTNNSLYLQMSGLRAEDSAVYYCAKDVYGDFAVDSWGQGTLVTVSS
VL: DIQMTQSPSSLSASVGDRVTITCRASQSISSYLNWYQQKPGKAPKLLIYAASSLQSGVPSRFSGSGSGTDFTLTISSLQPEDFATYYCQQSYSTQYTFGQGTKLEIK
modifications: p-SCN-Bn-DFO chelator loaded with 89Zr; sites not stated
notes: also called 89Zr-DFO-M16Ab1; 89Zr-M16Ab1
In general, EC50 refers to the midpoint of the concentration-response curve. A lower EC50 goes with greater potency. With B1, in assay [1], a half-maximal effect (EC50) was put at 10 nM.

B2: DFO-M16Ab1, M16Ab1 IgG1 conjugated with p-SCN-Bn-DFO (antibody, V domains shown)
VH: QVQLVESGGGVVQPGGSLRLSCAASGFTFSTYGMHWVRQAPGKGLEWVAVISYDGSNKYYADSVKGRFTISRDNTNNSLYLQMSGLRAEDSAVYYCAKDVYGDFAVDSWGQGTLVTVSS
VL: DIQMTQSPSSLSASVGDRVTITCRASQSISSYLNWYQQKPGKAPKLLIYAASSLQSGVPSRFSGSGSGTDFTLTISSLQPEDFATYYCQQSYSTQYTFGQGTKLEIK
modifications: p-SCN-Bn-DFO (deferoxamine) conjugated, average of two DFO molecules per antibody; sites not stated
notes: also called DFO-MUC16 Ab 1; DFO-MUC16 AB1
For orientation: Kd means a measure of binding affinity in units of concentration. Read a low Kd as tighter binding. In assay [2], B2 had a concentration giving a half-maximal response (EC50) of 10.3 nM and an equilibrium dissociation constant (Kd) of 12.7 nM.

B3: M16Ab1, fully human anti-MUC16 monoclonal antibody, full-length IgG1 (antibody, V domains shown)
VH: QVQLVESGGGVVQPGGSLRLSCAASGFTFSTYGMHWVRQAPGKGLEWVAVISYDGSNKYYADSVKGRFTISRDNTNNSLYLQMSGLRAEDSAVYYCAKDVYGDFAVDSWGQGTLVTVSS
VL: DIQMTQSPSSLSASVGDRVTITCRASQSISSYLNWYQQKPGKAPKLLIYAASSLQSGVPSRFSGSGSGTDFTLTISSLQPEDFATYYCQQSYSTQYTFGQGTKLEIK
notes: also called MUC16 Ab1; MUC-16 Ab1
In assay [2], B3 had an EC50 of 9.1 nM and a Kd of 10.9 nM.
